Reference: patent US20230183322A1 (PEKING UNIVERSITY, published 2023)

B1: ABU-339 (antibody, V domains shown)
VH: EMQLLESGGGLVQPGGSLRLSCAASGFTFFSYALSWVRQAPGKGLEWVSGISGISDSGGNTYYADSVKGRFTISRDNSQNMLYLQMNSLRVEDTAVYYCAKERRPVLRYFDWLPIEAPDYWGPGTLVTVSS
VL: AIQLTQSPSSLSASVGDRVTITCRASQGISSSLAWYQQKPGKAPKLLIYSASTLQSGVPSRFSGSGSGTDFTLTITSLQPEDFATYYCQQLNSYPLTFGGGTKVEIK
B2: ABU-205 (antibody, V domains shown)
VH: QVQLVQSGAEVKKPGSSVKVSCKASGGTFSSYAISWVRQAPGQGLEWMGRIIPIFGTANYAQKFQGRVTITADESTSTAYMELSSLRSEDTAVYYCARAAYYYDSSGYGWFDPWGQGTLVTVSS
VL: not shown
B3: ABU-254 (antibody, V domains shown)
VH: QVQLVQSGAEVKKPGSSVKVSCKASGGTFSSYAISWVRQAPGQGLEWMGRIIPIFGTANYAQKFQGRVTITADESTSTAYMELSSLRSEDTAVYYCARAAYYYDSSGYGWFDPWGQGTLVTVSS
VL: not shown
B4: ABU-323 (antibody, V domains shown)
VH: EVQLVESGGGLVQPGGSLRLSCAASGFTVSSNYMSWVRQAPGKGLEWVSVIYSGGTTYYADSVKGRFTISRHNSKNTLYLQMNSLRAEDTAVYYCARDWGEYYFDYWGQGTLVTVSS
VL: not shown
B5: ABU-394 (antibody, V domains shown)
VH: EVQLVESGGGLIQPGGSLRLSCAASGFTVSSNYMSWVRQAPGKGLEWVSVIYSGGSTYYADSVKGRFTISRDNSKNTLYLQMNSLRAEDTAVYYCARSYGDYYFDYWGQGTLVTVSS
VL: DIQLTQSPSSLSASVGDRVTITCRASQGISSYLAWYQQKPGKAPKLLIYAASTLQSGVPSRFSGSGSGTDFTLTISSLQPEDFATYYCQQLNSFGPGTKVDIK
B6: ABU-393 (antibody, V domains shown)
VH: EVQLVESGGGLIQPGGSLRLSCAASGFTVSSNYMSWVRQAPGKGLEWVSVIYSGGSTYYADSVKGRFTISRDNSKNTLYLQMNSLRAEDTAVYYCARDYGDYWFDPWGQGTLVTVSS
VL: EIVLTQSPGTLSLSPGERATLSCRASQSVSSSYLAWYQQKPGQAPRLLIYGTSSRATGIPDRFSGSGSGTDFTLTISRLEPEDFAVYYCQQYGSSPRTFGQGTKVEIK
B7: ABU-312 (antibody, V domains shown)
VH: EVQLLESGGGLVQPGGSLRLSCAASGFTFSTYAMSWVRQAPGKGLEWVSVISGSGGSTYYADSVKGRFTISRDNSKNTLYLQMNSLRAEDTAVYYCAKEYYYDSSGYYYREDAFDIWGQGTMVTVSS
VL: DIQMTQSPSAMSASVGDRVTITCRASQGISNYLAWFQQKPGKVPKRLIYAASSLQSGVPSRFSGSGSGTEFTLTISSLQPEDFATYYCLQHNSYPRTFGQGTKVEIK
B8: ABU-329 (antibody, V domains shown)
VH: EVQLVESGGGLVQPGGSLRLSCAASGFTFSSYWMHWVRQAPGKGLVWVSRIKSDGSSTSYADSVKGRFTISRDNAKNTLYLQMNSLRAEDTAVYYCAGKKIYYGSSFDPWGQGTLVTVSS
VL: NFMLTQPHSVSESPGKTVTISCTRSSGSIASNYVQWYQQRPGSAPTTVIYEDNQRPSGVPDRFSGSIDSSSNSASLTISGLKTEDEADYYCQSYDSSNQVFGGGTKLTVL
B9: ABU-210 (antibody, V domains shown)
VH: EVQLVESGGGLVQPGRSLRLSCAASGFTFDDYAMHWVRQAPGKGLEWVSGISWNSGTIGYEDSVKGRFIISRDNAKNSLYLQMNSLRAEDTALYYCAKEPLFGETYGMDVWGQGTTVTVSS
VL: QSALTQPASVSGSPGQSITISCTGTSSDVGGYNYVSWYQHHPGKAPKLMIYEVSNRPSGVSNRFSGSKSANTASLTISGLQTEDEADYYCSSYTSISTVLFGGGTKLTVL
B10: ABU-305 (antibody, V domains shown)
VH: QVQLVQSGAEVKKPGASVKVSCKASGYTFTSYGISWVRQAPGQGLEWMGWISAYNGNTNYAQKLQGRVTMTTDTSTSTAYMELRSLRSDDTAVYYCARDGHSAWGAFDIWGQGTMVTVSS
VL: not shown
B11: ABU-288 (antibody, V domains shown)
VH: QVQLQESGPGLVKPSQTLSLTCTVSGGSISSGLYHWSWIRQPAGKGLEWIGRIFSSGSTAYSPSLKSRVIISADTSKNQFSLKLSSVTAADTAVYYCARDSPLKFDSFGYPLYGMDVWGQGTTVTVSS
VL: DIQMTQSPSSLSASVRDKVTITCRASQSISSCLNWYQQKPGKAPKVLIYAASSLQSGVPSRFSGSGSGTDFTLTISSVQPEDFATYYCQQSYSVPHTFGQGTKVEIK
B12: ABU-316 (antibody, V domains shown)
VH: QVQLVESGGGVVQPGRSLRLSCAASGFTFSSYGMHWVRQAPGKGLEWVAVISYDGSNKYYVDSVKGRFTISRDNSKNTLYLQMNSLRAEDTAVYYCAKDPYYYGSGSSNFFDYWGQGTLVTVSS
VL: SYVLTQPPSVSVAPGKTARITCGGNNIGSKSVHWYQQKPGQAPVLVVYDDNDRPSGIPDRFSGSNSGNTATLTISRVEAGDEADYYCQVWDSSSDHYWVFGGGTKLTVL
B13: ABU-319 (antibody, V domains shown)
VH: QVQLVESGGGVVQPGRSLRLSCAASGFTFSSYGMHWVRQAPGKGLEWVAVIWYDGSNKYYADSVKGRFTISRDNSKNTLYLQMNSLRAEDTAVYYCAKGEGVYGSGSRYFLDYWGQGTLVTVSS
VL: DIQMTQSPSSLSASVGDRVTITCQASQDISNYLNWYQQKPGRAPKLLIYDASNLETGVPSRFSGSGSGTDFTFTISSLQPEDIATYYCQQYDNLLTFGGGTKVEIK
B14: ABU-298 (antibody, V domains shown)
VH: QVQLVQSGAEVKKPGASVKVSCKASGYTFTSYGISWVRQAPGQGLEWMGWISAYNGNTNYAQKLQGRVTMTTDTSTSTAYMELRSLRSDDTAVYYCARDESGSYYGDQAFDIWGQGTMVTVSS
VL: not shown
B15: ABU-325 (antibody, V domains shown)
VH: EVQLVESGGGLIQPGGSLRLSCAASGFTVSSNYMSWVRQAPGKGLEWVSVIYSGGSTYYADSVKGRFTISRDNSKNTLYLQMNSLRAEDTAVYYCARDRRVGSPYYYYYMDVWGKGTTVTVSS
VL: QTVVTQEPSLTVSPGGTVTLTCASSTGAVTSGYYPNWFQQKPGQAPRALIYSTSNKHSWTPARFSGSLLGGKAALTLSGVQPEDEAEYYCLLYYGGAPVFGGGTKLTVL
B16: ABU-330 (antibody, V domains shown)
VH: QVQLQESGPGLVKPSQTLSLTCTVSGGSISSGGYYWSWIRQHPGKGLEWIGYIYYSGSTYYNPSLKSRVTISVDTSKNQFSLKLSSVTAADTAVYYCARGGSGSGWYGGRFDYWGQGTLVTVSS
VL: EIVLTQSPATLSLSPGERATLSCRASQSVSSYLAWYQQKPGQAPRLLIYDASNRATGIPARFSGSGSGTDFTLTISSLEPEDFAVYYCQQRSNWLFTFGPGTKVDIK
B17: ABU-337 (antibody, V domains shown)
VH: QVQLVESGGGVVQPGRSLRLSCAASGFTFSTSAMHWVRQAPGKGLEWVAGISYDGSNEHLDSVKGRFTISRDNSKNTLYLQMSSLRPEDTAVYYCARCPFWNYGHCYLDNWGQGTLVTVSS
VL: EIVLTQSPATLSLSPGERATLSCRASQSVSSYLAWYQQKPGQAPRLLIFDASNRATGIPARFSGSGSGTDFTLTISSLEPEDFAVYYCQQRNKWPGTFGQGTKVEIK
B18: ABU-181 (antibody, V domains shown)
VH: QVQLQESGPGLVKPSQTLSLICTVSDDSISSGSYYWSWIRQPAGKGLEWIGRIYAGESTNYNPSLKSRVIISVDTSKKQFSLRLSSVTAADTAVYYCARGAVVTPFGLDSWGQGTLVTVSS
VL: SYELTQPPSVSVSPGQTARITCSGDALPKQYAYWYQQKTGQAPVLVIYKDSERPSGIPERVSGSSSGTTVTLTISGVQAEDEADYYCQSADSSGTWVFGGGTKLTVL
B19: ABU-317 (antibody, V domains shown)
VH: QVQLVESGGGVVQPGWSLRLSCAASGFTFSSFAMYWVRQAPGKGLEWVAVISYDGANKYYADSVKGRFTISRDNSKNTLYLQVNSLRVEDTAVYYCARGPDYYDTGGYFDLWGRGTLVTVSS
VL: QSVLTQPPSVSAAPGQKVTISCSGSSSNIGNNYVSWYQQLPGTAPKLLIYDNNKRPSGIPDRFSGSKSGTSATLGITGLQTGDEADYYCGTWDSSLSAGVFGGGTKLTVL
B20: ABU-289 (antibody, V domains shown)
VH: QVQLVQSGAEVKKPGSSVKVSCKASGGTFSSYTISWVRQAPGQGLEWMGRIIPILGIANYAQKFQGRVTITADKSTSTAYMELSSLRSEDTAVYYCARGIVGATPGYFDYWGQGTLVTVSS
VL: EIVMTQSPATLSVSPGERATLSCRASQSVSSNLAWYQQKPGQAPRLLIYGASTRATGIPARFSGSGSGTEFTLTISSLQSEDFAVYYCQQYNNWLTFGGGTKVEIK
B21: ABU-145 (antibody, V domains shown)
VH: QVQLQESGPGLVKPSQTLSVTCTVSGGSINRDGHYWIWIRQHPEKGLEWLGYIYSGRNTFYNPSLRSRLSISADTSKSQFSLNLHSVTAADTAVYYCAKMYSDYDDNYYGLDVWGRGTTVTVSS
VL: EIVLTQSPGTLSLSPGERATLSCRASHTISSSYLAWYQQKAGQAPRLLIYAASSRATGIPARFSGSGSGTDFTLTISRLEPEDFAVYYCQQFDNSPPWTFGRGTKVEMR
B22: ABU-320 (antibody, V domains shown)
VH: QVQLVESGGGVVQPGRSLRLSCAASGFTFSSYATHWVRQAPGKGLEWVAVISYDGSNKYHADSVKGRFTISRDNSKNTLYLQMNSLRAEDTAVYYCAREWSRGAVAGTGYFDYWGQGTLVTVSS
VL: SYVLTQPPSVSVAPGKTARITCGGNNIGSKSVHWYQQKPGQAPVLVVYDDSDRPSGIPERFSGSNSGNTATLTISRVEAGDEADYYCQVWDSSGDHWVFGGGTKLTVL
B23: ABU-211 (antibody, V domains shown)
VH: EAQLVESGGGLVQPGRSLTVSCAVSGFTFDDYAMHWVRQAPGKGLEWVSSISWNSEKIAYADSVKGRFTVSRDNAKNSLYLQMTSLRPEDTALYYCARDKGSGSYYSGAYYYYMDVWGKGTTVTVSS
VL: SDALTQPPSVSVAPGKTAAITCGGDNIGSKNVHWYQQKPGQAPLLVVFDDGDRPSGIPERFSGSNSGNTATLTISRVEAGDEADYYCQVWDGGSDDRGYVFGTGTKVTVL
B24: ABU-328 (antibody, V domains shown)
VH: EVQLVESGGGLVQPGGSLRLSCAASGFTVSSNYMSWVRQAPGKGLEWVSVIYSGGSTYYADSVKGRFTISRDNSKNTLYLQMNSLRAEDTAVYYCARLSGTGYGGDGGWFDPWGQGTLVTVSS
VL: QSALTQPASVSGSPGQSITISCTGTSSDVGSYNLVSWYQQHPGKAPKLMIYEVSKRPSGVSNRFSGSKSGNTASLTISGLQAEDEADYYCCSYAGSSLWVFGGGTKLTVL

Target: biotin-labeled SARS-COV-2 RBD domain (SARS-CoV-2, UniProt P0DTC2 319-541)
Assay: SPR, Biacore T200, biotin-RBD on SA chip, antibody as analyte

| Binder | Kd [µM] |
| --- | --- |
| B1 | < 0.02 |
| B2 | < 0.01 |
| B3 | < 0.01 |
| B4 | < 0.02 |
| B5 | < 0.02 |
| B6 | < 0.02 |
| B7 | < 0.02 |
| B8 | < 0.01 |
| B9 | < 0.01 |
| B10 | < 0.02 |
| B11 | < 0.001 |
| B12 | < 0.01 |
| B13 | < 0.01 |
| B14 | < 0.02 |
| B15 | < 0.01 |
| B16 | < 0.01 |
| B17 | < 0.02 |
| B18 | < 0.01 |
| B19 | < 0.02 |
| B20 | < 0.01 |
| B21 | < 0.01 |
| B22 | < 0.01 |
| B23 | < 0.02 |
| B24 | < 0.01 |
